{"source": "patent US20190144498A1", "about": "(Johns Hopkins, published 2019)", "binders": {"B1": {"name": "Ac-VRMA-B(OH)2 (peptide)", "peptide": "Ac-VRMA-{B(OH)2}", "SMILES": "CSCC[C@H](NC(=O)[C@H](CCCNC(=N)N)NC(=O)[C@@H](NC(C)=O)C(C)C)C(=O)N[C@@H](C)C(=O)B(O)O"}}, "biological_target": "T1, endogenous GlpG in living E. coli cells (Escherichia coli, UniProt P09391 1-276)", "T1 sequence (looked up)": "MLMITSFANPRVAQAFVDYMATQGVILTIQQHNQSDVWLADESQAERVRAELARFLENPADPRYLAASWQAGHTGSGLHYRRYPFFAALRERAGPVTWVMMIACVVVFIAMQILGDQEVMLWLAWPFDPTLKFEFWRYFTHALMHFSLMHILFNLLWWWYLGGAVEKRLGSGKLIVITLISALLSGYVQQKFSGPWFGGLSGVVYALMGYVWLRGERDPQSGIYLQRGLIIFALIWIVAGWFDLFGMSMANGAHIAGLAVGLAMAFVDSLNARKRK", "assay": "cell-based or functional assay", "note": "* marks the point of attachment. B(OH)2 = OB(O)*"}
{"binder": "B1", "values": [{"measurement": "EC50 of inhibition of endogenous GlpG activity (TatA-Flag cleavage) in living E. coli cells", "value": "< 1000", "unit": "nM"}, {"measurement": "fold increase in potency of GlpG inhibition relative to the aldehyde (Ac-VRMA-CHO)", "value": "> 100", "unit": "fold"}, {"measurement": "fold increase in potency of GlpG inhibition relative to the chloromethylketone (Ac-VRMA-CMK)", "value": "> 400", "unit": "fold"}]}
